Target: T1, ybbR-CENP-B-His6 (full length, JF549-labelled for smTIRF) (UniProt P07199)
T1 sequence: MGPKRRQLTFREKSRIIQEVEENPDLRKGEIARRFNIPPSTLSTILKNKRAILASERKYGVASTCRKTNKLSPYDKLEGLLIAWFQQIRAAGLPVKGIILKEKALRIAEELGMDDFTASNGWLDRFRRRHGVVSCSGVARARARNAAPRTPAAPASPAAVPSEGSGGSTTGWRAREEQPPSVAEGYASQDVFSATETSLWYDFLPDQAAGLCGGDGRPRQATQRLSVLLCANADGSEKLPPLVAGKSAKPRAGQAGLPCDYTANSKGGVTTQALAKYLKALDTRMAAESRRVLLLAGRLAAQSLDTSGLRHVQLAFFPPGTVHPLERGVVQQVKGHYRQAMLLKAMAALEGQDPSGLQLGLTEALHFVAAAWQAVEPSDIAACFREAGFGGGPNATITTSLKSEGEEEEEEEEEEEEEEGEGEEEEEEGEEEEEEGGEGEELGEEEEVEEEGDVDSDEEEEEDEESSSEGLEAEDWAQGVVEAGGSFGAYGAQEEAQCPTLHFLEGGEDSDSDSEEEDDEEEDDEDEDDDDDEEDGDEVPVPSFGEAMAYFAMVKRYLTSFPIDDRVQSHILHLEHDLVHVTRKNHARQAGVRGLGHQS
Assay: single-molecule colocalization (smTIRF)
Conditions: smTIRF: about 5 nM CENP-B, 150 mM salt, EMSA: 10 mM Tris pH 7.5, 130 mM KCl, 3.2% glucose, 30 min at room temperature

## CENP-A 12x601 chromatin fiber DA3BB (1 B-Box at N6)
150 mM KCl, tau_off,1 4.9 s (67%), A2 33%, amino-C6-dT, 5% PAGE in 0.25x …
  binding signal (s (tau off,2)): 51.4

## GATCGGTCTCATAGCCTGGAGAATCCCGGTGCCGAGGCCGCTCAATTGGTCGTAGACAGCTCTAGCACCGCTTAAACGCACGTACGCGCTGTCCCCCGCGTTTTAACCGCCAAGGGGATTACTCCCTAGTCTCCAGGCACGTGTCAGATATATACATCCTGTCACACTGTGGATC (double strand) [H3 1x601 mononucleosome (no B-Box)]
tau_off,1 3.4 s (51%), A2 49%, amino-C6-dT on reverse strand, 5% PAGE in 0.25x TBE
  binding signal (s (tau off,2)): 15.2

## GATCGGTCTCATAGCCTTCGTTGGAAACGGGAGAATCCCGGTGCCGAGGCCGCTCAATTGGTCGTAGACAGCTCTAGCACCGCTTAAACGCACGTACGCGCTGTCCCCCGCGTTTTAACCGCCAAGGGGATTACTCCCTAGTCTCCAGGCACGTGTCAGATATATACATCCTGTCACACTGTGGATC (double strand) [CENP-A 1x601 BB mononucleosome]
tau_off,1 6.8 s (51%), A2 49%, amino-C6-dT on reverse strand (smTIRF), 5% PAGE in 0.25x TBE
  binding signal (s (tau off,2)): 50.2

## GATCGGTCTCATAGCCTTCGTTGGAAACGGGAGAATCCCGGTGCCGAGGCCGCTCAATTGGTCGTAGACAGCTCTAGCACCGCTTAAACGCACGTACGCGCTGTCCCCCGCGTTTTAACCGCCAAGGGGATTACTCCCTAGTCTCCAGGCACGTGTCAGATATATACATCCTGTCACACTGTGGATC (double strand) [H3 1x601 BB mononucleosome]
tau_off,1 6.87 s (66%), A2 34%, amino-C6-dT on reverse strand, 5% PAGE in 0.25x TBE
  binding signal (s (tau off,2)): 48.3

## H3 12x601 chromatin fiber DA3BB (1 B-Box at N6)
150 mM KCl, tau_off,1 3.6 s (47%), A2 52%, amino-C6-dT, 5% PAGE in 0.25x …
  binding signal (s (tau off,2)): 17.6

From publication PMC10716449
